From paper PMC5589592, “Direct inhibition of STAT signaling by platinum drugs contributes to their anti-cancer activity” (Oncotarget, 2017) come the findings set out here.

Square brackets hold non-standard residues; d marks the D form. Ends that are not written are not given here. pY = N[C@@H](Cc1ccc(OP(=O)(O)O)cc1)C(=O)O

The assay addresses T1, recombinant human STAT3, full-length, biotinylated through an N-terminal avi-tag (human, UniProt P40763 1-770, biotin on the avi-tag).
T1 construct: also called biotinylated STAT; full-length protein; not shown: avi-tag, N-terminal, kept
In words: AlphaScreen or HTRF; biotinylated STAT incubated 90 min with (or without) a platinum compound and FITC-pTyr peptide, then streptavidin-coated donor beads and anti-FITC acceptor beads; detection at 570 nm; cisplatin 1, 3, 10 or 30 uM inhibited the signal. Particulars: both partners purified.

T1 sequence (P40763 whole entry): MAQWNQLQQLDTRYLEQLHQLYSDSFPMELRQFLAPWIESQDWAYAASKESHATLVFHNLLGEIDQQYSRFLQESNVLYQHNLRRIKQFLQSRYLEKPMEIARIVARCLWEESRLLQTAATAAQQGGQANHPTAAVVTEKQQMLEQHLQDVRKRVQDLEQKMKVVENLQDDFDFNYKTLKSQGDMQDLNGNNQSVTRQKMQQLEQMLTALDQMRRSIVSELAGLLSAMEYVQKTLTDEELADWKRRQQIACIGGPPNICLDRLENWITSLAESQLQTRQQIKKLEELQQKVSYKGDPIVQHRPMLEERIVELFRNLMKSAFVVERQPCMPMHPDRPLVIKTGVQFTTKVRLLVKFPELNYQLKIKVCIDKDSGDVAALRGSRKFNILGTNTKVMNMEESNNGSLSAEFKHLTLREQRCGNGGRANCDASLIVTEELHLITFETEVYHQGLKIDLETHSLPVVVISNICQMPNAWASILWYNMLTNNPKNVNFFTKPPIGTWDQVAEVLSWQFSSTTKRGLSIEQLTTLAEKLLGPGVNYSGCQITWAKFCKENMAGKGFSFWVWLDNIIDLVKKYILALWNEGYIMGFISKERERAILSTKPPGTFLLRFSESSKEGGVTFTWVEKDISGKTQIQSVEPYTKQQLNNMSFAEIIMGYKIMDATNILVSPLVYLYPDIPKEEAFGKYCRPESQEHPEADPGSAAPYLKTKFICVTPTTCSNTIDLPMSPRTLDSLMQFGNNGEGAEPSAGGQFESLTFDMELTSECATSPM

B1: 5-carboxyfluorescein (FITC)-GpYLPQTV phospho-tyrosine peptide probe (STAT3) (peptide)
peptide: G[pY]LPQTV
modifications: not fully specified (N-terminus)
notes: pTyr peptide that corresponds with a STAT docking site of the upstream receptor; also called FITC-pTyr peptide; pTyr
Regarding B1, the binding result is on record as “binds”.
